# The RNAGym collection of RNA variant scans (doi:10.1073/pnas.2313332121)
# B1: TPR t1 (parent)
# chain: GACCAAUCUGCCCUCAGAGCUCGAGAACAUCUUCGGAUGCAGAGGAGGCAGGCUUCGGUGGCGCGAUAGCGCCAACGUCCUCAACCUCCAAUGCAUCCCACCACAUGAUGAUGCCUGAAGAGCCUUGGUUUUUUG
# Variants of: B1
# Assay: polymerase ribozyme fitness, log enrichment relative to wild type (log ratio); higher = more active; in vitro selection for triplet polymerase activity
# How it was run: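 Mutant libraries of both subunits of a heterodimeric triplet polymerase ribozyme were PCR-built, transcribed, and selected once in triplicate, with frozen incubation at −7 °C and capture of gel-excised extended constructs on streptavidin beads before RT-PCR. Illumina sequencing of input and output libraries was filtered to genotypes with ≥10 input reads and ≥1 read per output. Fitness is the logarithm of genotype enrichment over wild-type enrichment, using inverse-variance-weighted replicate averages. The logarithm is base 2.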
row,Variant,polymerase ribozyme fitness (log ratio)
1,C28U G110U,-1.44
2,C28G G117A,-4.12
3,C28U C62A C124G U133G,-2.2
4,C28U G45C C76A C89G G120C,-5.73
5,C28U A50U,-2.92
6,A27U G71U C94A,-4.88
7,C28A G45A,-5.12
8,C28U A37C G71U,-3.01
9,A29G C70U G93U,-3
10,C28A C72G C123U U125C,-4.42
11,A27U G135C,-3.11
12,A29C G36U A43U G44A G69U A121C,-2.34
13,C28A G60A,-2.44
14,C28A C62A,-5.73
15,C28A G35C G61A A84C A103G C114A G117C,-7.02
16,A29G C115A,-0.195
17,A29C U106A,-1.93
18,C28G A83G,-3.41
19,A29C C56G C73A A119G,-3.16
20,C28A U112C U116G U130A U132C,-5.19
21,A29G C123A,-0.494
22,C28U A119G,-1.04
23,A29G G42C G45C C49A U106A,-4.8
24,A29G G69C G77C,-4.34

row,Variant,polymerase ribozyme fitness (log ratio)
1,A27U U54A U112C G122A,-2.2
2,A29G A41U A46C G63C,-5.41
3,C28U C86A,-2.8
4,C28A C40G,-6.86
5,A27U U96G G110U,-7.43
6,C28G C72A,-3.15
7,A29G A46U G52U G57U C80U U87G C115G,-5.18
8,A29G G63U G120C,-1.96
9,A29G G45U C64U,-2.76
10,C28A A66C A111U C115G,-6.53
11,C28G U96A C97G G117C,-8.14
12,C28U G61C U106A G113C,-5.31
13,C28U C53A G93U,-4.15
14,C28U G60U,-1.24
15,C28U G60A,-2.05
16,C28U A100C C102U U112C,-4.83
17,C28U C123U,-0.507
18,C28U G42U G44U G61U,-4.27
19,A29G G60C U131A,-1.85
20,C28U U78C C101U,-2.49
21,A29G G60A,-1.42
22,A29G G60C,-1.31
23,A29G G61A G93A C102G G117C,-7.25
24,A29G C53G A95G,-2.04

row,Variant,polymerase ribozyme fitness (log ratio)
1,A29G U55G G63A U131C U133G,-2.37
2,A27U U78C,-2.98
3,C28G U96A,-3.94
4,A29G U132C,-0.924
5,C28U G45A C70U G113A A118U U131C,-4.94
6,C28G G44C G52U C73A G110A,-2.09
7,C28U G36C C56U U81C G122U C124U U132C,-2.46
8,C28A A83U,-2.16
9,C28U G127U,-2.17
10,C28U A50U C70A U106A G110A C114A,-5.71
11,C28A G45U C72A C115A,-6.12
12,A29G C88U,-1.2
13,C28A G120C,-2.79
14,C28U C40A C124U U130A,-3.36
15,A29G A83C,-1.32
16,A29G A37G U54G G69C,-7.29
17,C28G C31U G58A G63A G117C,-6.83
18,C28U C72A,-2.49
19,C28G G71A A83G U87G A119U,-5.64
20,A29G G120U U132A,-1.63
21,A29G U59G,-1.48
22,C28G G69U A91G U116G,-5.08
23,A29G G44U,-2.04
24,A29G G48U G93C G110U C123U,-4.77

row,Variant,polymerase ribozyme fitness (log ratio)
1,C28U C73U U81A U106C,-3.5
2,C28G U32C,-2.94
3,A29G G120U,-0.745
4,A29G G71A G120U U132A,-2.06
5,C28U A41G A121C,-0.919
6,C28G A50U,-4.17
7,A29G C73U,-1.55
8,C28G C53A C88U C124A,-1.3
9,C28U C79U,-1.61
10,C28A U132C,-4.37
11,A29G C101A,-3.99
12,C28U G52A C70U,-3.7
13,C28U G61A U112C U131A,0.223
14,C28U C49U,-3.27
15,C28A G71C C89G A121U C124A,-5.37
16,C28U G113A,-2
17,C28U G113C,-3.57
18,C28U G44U U59A C89G,-4.37
19,A29C C70U A118G,-2.26
20,C28A C85U,-4.56
21,C28U A46U G48A A95G C124G,-3.31
22,C28G C40U C86A,-3.65
23,C28G U54G C62U,-3.83
24,A29G G42A G63A,-4.31

row,Variant,polymerase ribozyme fitness (log ratio)
1,A29G A41G,-1.22
2,A29G A41U,-1.6
3,C28U U112C U131A,-0.425
4,C28G U32C A91U C114U A119G,-6.71
5,A29C A41C G61U,-3.33
6,A29G A46U G52U G57U U87G C115G,-4.9
7,C28U U96G,-2.43
8,A29C C53U C80U A90G,-3.07
9,C28U G45C,-3.26
10,C28U G45A,-2.04
11,A29G C49G G71A U125G,-3.8
12,C28U G52A C73U,-2.19
13,C28U C70U C88U,-3.74
14,C28A C72A,-3.59
15,C28G C73U A119G,-1.62
16,A27U U32A C72U C114A,-5.96
17,C28G C86A G120C,-2.11
18,C28U G48U U78A,-3.25
19,A29G C70G G120A,-2.72
20,C28A G69C C124A,-4.58
21,A29C C56A G71C U87A C98A C101U G110C,-6.81
22,C28A G60A G110U G122A,-0.649
23,A29C C62A C124G U129C,-3.09
24,C28G G63A C73U,-3.78

row,Variant,polymerase ribozyme fitness (log ratio)
1,C28U A43G G69U G113A,-1.82
2,C28U A105U U112C,-4.9
3,A29G A74U U109A C114U,-4.26
4,C28U G77A U112G U125A,-3.35
5,C28A C40G G44C G51A U112A,-6.79
6,C28U U129A,-3.1
7,A27U U87C,-2.89
8,A29G A37C A74G A111C,-1.06
9,C28G G44A A46G A90C,-4.5
10,C28G U106A G117C,-5.9
11,C28A G110A,-0.364
12,C28U G39A G45A G120A,-2.28
13,A29G G61A C89A,-2.41
14,C28A G110C A119U,-1.42
15,C28G C70A,-4.55
16,A29G C34A C40A U106G G113U U126C,-7.15
17,C28U G52U,-2.88
18,A29G G69U A95G,-1
19,C28G A111U,-2.62
20,C28U U32C G71A,-2.59
21,C28A A50C C82U C115A,-4.58
22,C28A G61C,-5.18
23,C28U U125A,-2.25
24,C28G G107C U109G,-6.09

row,Variant,polymerase ribozyme fitness (log ratio)
1,C28G U92G G117A A121G,-4.67
2,C28U U38A C79U C104A C124A U133G,-4.38
3,C28A A46U G77C A121C,-4.52
4,C28A U30G A43G G110C,-6.92
5,C28U C49A G113C,-3.97
6,A29C A84G U87A C104U C124G,-1.28
7,C28A A83U G110U,1.66
8,A29C C62U C94A,-3.98
9,C28G C40A C94U G110C,-0.668
10,C28G G48U U92G C124A,-5.41
11,A29G A43G G107U C124U,-6.92
12,C28U G57U,-1.3
13,C28U C56U C101U G120U,-2.65
14,C28U A74U,-2.33
15,A29G G71U G110A,-2.82
16,C28U C124A U125A,-0.0946
17,A29G U32C A50U,-1.45
18,C28G G45U G52A G107C U109A C124A,-5.94
19,C28G A41C C64U C115A,-2.93
20,C28G G113C,-6.23
21,C28U G44C C79U C82U U126C G127U U129G,-3.26
22,A27U G113U,-4.99
23,A29C G57U G120U,-2.96
